Two molecules from patent US20110052595A1 (Kyowa Kirin, published 2011) can be followed below.

For experiment [1], the target named is T1, recombinant secretory human HB-EGF manufactured by R & D System (catalogue number 259-HE/CF) (human, UniProt Q99075 63-148, biotin-labeled with EZ-Link Sulfo-NHS-Biotin in the EGFR binding inhibition assay only).
T1 construct: Bought protein; also called recombinant human HB-EGF; secretory HB-EGF
In words: Biacore T-100, HB-EGF immobilized on CM5 chip, antibody as analyte. The method, then:
In order to analyze binding activities of a mouse antibody KM3566 and the chimeric antibody KM3966 for human HB-EGF in reaction kinetics, the binding activity measurement was carried out using Biacore. All of the following operations were carried out using Biacore T-100 (manufactured by Biacore). Human HB-EGF (manufactured by R & D) prepared into 5 μg/ml using HBS-EP Buffer (manufactured by Biacore) was immobilized onto a CM 5 sensor chip (manufactured by Biacore) to a level of 80 RU (resonance unit) by an amine coupling method. Thereafter, each antibody diluted 5-fold from 9 nmol/l was let flow on the chip at a rate of 10 μl/min, and by analyzing the sensor-gram at each concentration, the association rate constant and dissociation rate constant of each antibody for human HB-EGF were calculated.
It was confirmed based on the results that both antibodies almost the same binding activity for human HB-EGF.

The target in experiment [2] is bovine serum albumin (BSA) (bovine, UniProt P02769 25-607). In words: binding ELISA.
Experiment [3] deals with T2, mutant HB-EGF in which serine at position 147 from the N-terminal was substituted with threonine (human, UniProt Q99075 63-148).
T2 construct: Transiently expressed on mouse LMTK cells; also called S147T
T2 chain: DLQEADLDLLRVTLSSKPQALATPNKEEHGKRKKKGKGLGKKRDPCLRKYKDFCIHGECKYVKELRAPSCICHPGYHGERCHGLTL
The experiment in a line: cell ELISA, biotin-labeled antibody on mutant HB-EGF gene-transferred LMTK cells, corrected for expression with H-6. As to the method:
Firstly, biotin-labeled anti-HB-EGF antibody (KM3566, KM3579 or KM3966) diluted to 2 μg/ml with a binding buffer (prepared by adding nonessential amino acids, 20 mM HEPES-NaOH (pH 7.2) and 10% fetal bovine serum to Ham's F12) was allowed to react at 4° C. for 2 hours with 1×10⁵ cells of the mutant HB-EGF gene-transferred cell, human/mouse chimeric HB-EGF gene-transferred cell or mock. After the reaction, the cells were washed twice with an ice-cooled washing buffer (prepared by adding 0.5 mM CaCl₂, 0.5 mM MgCl₂ and 0.1% fetal bovine serum to PBS) and then once with PBS(+) (prepared by adding 0.5 mM CaCl₂ and 0.5 mM MgCl₂ to PBS). A formaldehyde solution diluted to 1.8% with PBS(+) was added to the washed cells, and the cells were fixed at 4° C. for 20 minutes. […] By carrying out development of color using a peroxidase detection kit (ELISA POD Substrate OPD Kit, manufactured by Nacalai Tesque), the absorbance at 492 nm was measured and the activity of cell-bonded HRP was measured.
A value obtained by subtracting the absorbance for mock from the absorbance for each of the various mutant HB-EGF gene-transferred cells or human/mouse chimeric HB-EGF gene-transferred cells of the anti-HB-EGF antibody was used as the value A. […]

Chain of bovine serum albumin (BSA) (P02769 25-607 limits assumed): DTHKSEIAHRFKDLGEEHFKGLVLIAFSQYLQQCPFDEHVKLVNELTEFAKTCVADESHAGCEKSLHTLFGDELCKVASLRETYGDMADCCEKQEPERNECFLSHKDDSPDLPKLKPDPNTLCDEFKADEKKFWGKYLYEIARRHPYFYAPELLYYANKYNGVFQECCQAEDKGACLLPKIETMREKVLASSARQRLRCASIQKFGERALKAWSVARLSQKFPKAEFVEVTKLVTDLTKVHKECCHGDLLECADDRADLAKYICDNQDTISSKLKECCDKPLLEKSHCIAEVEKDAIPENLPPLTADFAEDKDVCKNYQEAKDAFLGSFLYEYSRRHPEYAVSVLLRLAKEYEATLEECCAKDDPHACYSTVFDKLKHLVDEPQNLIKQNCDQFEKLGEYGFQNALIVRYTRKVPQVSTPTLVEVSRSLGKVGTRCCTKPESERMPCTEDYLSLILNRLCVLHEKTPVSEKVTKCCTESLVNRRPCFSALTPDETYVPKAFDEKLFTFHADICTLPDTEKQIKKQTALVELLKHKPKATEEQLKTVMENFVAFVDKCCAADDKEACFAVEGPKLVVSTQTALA

B1: anti-HB-EGF monoclonal antibody KM3566 (antibody, V domains shown)
VH: QVQLQQSGTELARPGASVKLSCKASGYTFRTYGITWVKQRTGQGLEWIGEIFPGSGNTYYNEKFKGKASLTADKSSSTAYMQLSSLTSEDSAVYFCARESFSDGYYGYFDYWGQGTTLTVSS
VL: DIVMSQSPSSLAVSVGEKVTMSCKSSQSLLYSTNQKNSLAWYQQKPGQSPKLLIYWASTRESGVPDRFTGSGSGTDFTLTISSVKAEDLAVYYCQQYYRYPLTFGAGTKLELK
notes: also called anti-HB-EGF mouse antibody KM3566; monoclonal antibody produced by hybridoma KM3566 (FERM BP-10490)
With B1, the kon (as a rule, the rate constant with which the complex forms) in experiment [1] was 270000 M⁻¹ s⁻¹. Moreover, in experiment [2], the binding result is “no binding”.

B2: anti-HB-EGF chimeric antibody KM3966 (antibody, V domains shown)
VH: QVQLQQSGTELARPGASVKLSCKASGYTFRTYGITWVKQRTGQGLEWIGEIFPGSGNTYYNEKFKGKASLTADKSSSTAYMQLSSLTSEDSAVYFCARESFSDGYYGYFDYWGQGTTLTVSS
VL: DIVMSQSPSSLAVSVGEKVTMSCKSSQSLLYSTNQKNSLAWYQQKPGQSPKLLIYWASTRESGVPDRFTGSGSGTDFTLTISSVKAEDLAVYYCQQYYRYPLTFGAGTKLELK
notes: also called human chimeric antibody KM3966; anti-HB-EGF monoclonal antibody KM3966
Take B2: the association rate constant (kon) in experiment [1] was found to be 240000 M⁻¹ s⁻¹. Besides, the “relative binding activity (ratio to pRTHGC-6)” value in experiment [3] is ~0.33 fraction of binding to pRTHGC-6.
